{"source": "paper PMC7272653", "about": "“Human aminolevulinate synthase structure reveals a eukaryotic-specific autoinhibitory loop regulating substrate binding and product release” (Nature Communications, 2020)", "target": "the molecule itself", "experiment": "SEC + other: SAXS; in solution; SAXS coupled to a Shodex KW403-4F size exclusion column; 300 mM NaCl, 25 mM Hepes 7.5, 1 mM TCEP, 2% glycerol, 1% sucrose, 20 °C"}
{"protein": "hsALAS2_(ΔN142) (human erythroid-specific 5′-aminolevulinate synthase, aa 143–587) (enzyme, UniProt P22557 143-587, looked up, human ALAS2 (5′-aminolevulinate synthase, erythroid-specific), aa 143–587: catalytic core and Ct-extension; Before crystallisation it was made non-covalent with hydroxylamine; The His6 tag is TEV-cleavable and was removed 'where applicable'; also called hsALAS2_(ΔN142) WT; source: baculovirus-infected Sf9 insect cells, purified (Ni-NTA, Superdex 200)) FSYDQFFRDKIMEKKQDHTYRVFKTVNRWADAYPFAQHFSEASVASKDVSVWCSNDYLGMSRHPQVLQATQETLQRHGAGAGGTRNISGTSKFHVELEQELAELHQKDSALLFSSCFVANDSTLFTLAKILPGCEIYSDAGNHASMIQGIRNSGAAKFVFRHNDPDHLKKLLEKSNPKIPKIVAFETVHSMDGAICPLEELCDVSHQYGALTFVDEVHAVGLYGSRGAGIGERDGIMHKIDIISGTLGKAFGCVGGYIASTRDLVDMVRSYAAGFIFTTSLPPMVLSGALESVRLLKGEEGQALRRAHQRNVKHMRQLLMDRGLPVIPCPSHIIPIRVGNAALNSKLCDLLLSKHGIYVQAINYPTVPRGEELLRLAPSPHHSPQMMEDFVEKLLLAWTAVGLPLQDVSVAACNFCRRPVHFELMSEWERSYFGNMGPQYVTTYA", "values": [{"measurement": "stoichiometry N", "result": 2}]}
{"protein": "hsALAS2_(ΔN142ΔC545) (catalytic domain alone, aa 143–545) (domain or fragment, human, UniProt P22557 143-545, looked up, human ALAS2, catalytic domain alone, aa 143–545 (Ct-extension omitted); also called hsALAS2_(ΔN142ΔC545) WT; source: constructs cloned into pFB-LIC-Bse (Sf9) and pNIC28-Bsa4; purified (Ni-NTA, Superdex 200)) FSYDQFFRDKIMEKKQDHTYRVFKTVNRWADAYPFAQHFSEASVASKDVSVWCSNDYLGMSRHPQVLQATQETLQRHGAGAGGTRNISGTSKFHVELEQELAELHQKDSALLFSSCFVANDSTLFTLAKILPGCEIYSDAGNHASMIQGIRNSGAAKFVFRHNDPDHLKKLLEKSNPKIPKIVAFETVHSMDGAICPLEELCDVSHQYGALTFVDEVHAVGLYGSRGAGIGERDGIMHKIDIISGTLGKAFGCVGGYIASTRDLVDMVRSYAAGFIFTTSLPPMVLSGALESVRLLKGEEGQALRRAHQRNVKHMRQLLMDRGLPVIPCPSHIIPIRVGNAALNSKLCDLLLSKHGIYVQAINYPTVPRGEELLRLAPSPHHSPQMMEDFVEKLLLAWTAVGL", "values": [{"measurement": "stoichiometry N", "result": 2}]}
